How the values were obtained:
[1] = system: SVPs from patient K826 (HBV GtA); experiment: Binding of nanodisc-reconstituted NTCP-eYFP to SVPs of patient K826 (GtA); settings: 25–100 nM
Experimental: (§1) The lipids were then mixed with detergent-purified NTCP and incubated at room temperature for 5 min with gentle agitation. Next, membrane scaffold protein (MSP1D1) was added to the mixture and incubated for 20 min at room temperature. […] Bio-Beads were removed by passing through a gravity column (Bio-Rad), and the mixture was briefly spun at 4000 × g at 4 °C to remove excess lipids. […] Peak fractions containing nanodisc-reconstituted NTCP were collected and concentrated.
(§2) Subviral particles (SVPs) were isolated from plasma of two chronic HBV-infected patients by three consecutive ultracentrifugation steps according to published protocols[13]. Briefly, SVP were separated from virions using rate zonal ultracentrifugation through a sucrose density gradient. SVP-containing fractions were pooled and further purified using caesium chloride (CsCl) flotation ultracentrifugation. Pooled SVP-fractions were further purified using a second sucrose density gradient and concentrated by ultrafiltration. […] For fluorescence measurement, 100 μL HBS buffer was added to each well and the fluorescence intensity of eYFP was detected at 485 nm excitation and 535 nm emission on a fluorescence microplate reader (TECAN Life Sciences).

[2] = system: SVPs from patient ID1 (HBV GtD); experiment: Binding of nanodisc-reconstituted NTCP-eYFP to SVPs of patient ID1 (GtD); settings: 25–100 nM
Experimental: as §1, §2

B1: NTCP G158R: nanodisc-reconstituted NTCP-eYFP variant carrying the mutation G158R (protein)
chain: MEAHNASAPFNFTLPPNFGKRPTDLALSVILVFMLFFIMLSLGCTMEFSKIKAHLWKPKGLAIALVAQYGIMPLTAFVLGKVFRLKNIEALAILVCGCSPGGNLSNVFSLAMKGDMNLSIVMTTCSTFCALGMMPLLLYIYSRGIYDGDLKDKVPYKRIVISLVLVLIPCTIGIVLKSKRPQYMRYVIKGGMIIILLCSVAVTVLSAINVGKSIMFAMTPLLIATSSLMPFIGFLLGYVLSALFCLNGRCRRTVSMETGCQNVQLCSTILNVAFPPEVIGPLFFFPLLYMIFQLGEGLLLIAIFWCYEKFKTPKDKTKMIYTAATTEETIPGALGNGTYKGEDCSPCTA
modifications: left off: eYFP, C-terminal, kept | rho-1D4, C-terminal, state not stated
- binding to GtA SVPs (in words) [1]: abolished binding to the SVPs
- binding to GtD SVPs (in words) [2]: abolished binding to the SVPs

Reference: PMC10954734, “Structure of antiviral drug bulevirtide bound to hepatitis B and D virus receptor protein NTCP” (Nature Communications, 2024)
